± gives the uncertainty stated by the source.

B1: E3 ubiquitin-protein ligase Midline-1, residues 172 to 214; numbered along this chain, O15344 (parent)
chain: GLMCLEHEDEKVNMYCVTDDQLICALCKLVGRHRDHQVAALSE

In the data set the parent is B1. Kind of data set: abundance fitness (aPCA) (normalised: wild type 0, dead -1); higher = more abundant; growth selection in yeast, the domain comes from the species named. The settings on record: Homo sapiens.
For GLMCLPHEDEKVNMYCVTDDQLICALCKLVGRHRDHQVAALSE [E6P], the abundance fitness is -0.843 ± 0.17. As to GLMCLAHEDEKVNMYCVTDDQLICALCKLVGRHRDHQVAALSE [E6A], the abundance fitness is -0.085 ± 0.075.

In the case of GLMCLVHEDEKVNMYCVTDDQLICALCKLVGRHRDHQVAALSE [E6V], the abundance fitness is -0.183 ± 0.059.

With GLMCLTHEDEKVNMYCVTDDQLICALCKLVGRHRDHQVAALSE [E6T], the abundance fitness amounted to 0.001 ± 0.15.

In the case of GLMCLFHEDEKVNMYCVTDDQLICALCKLVGRHRDHQVAALSE [E6F], the abundance fitness worked out at 0.023 ± 0.11. In the case of GLMCLLHEDEKVNMYCVTDDQLICALCKLVGRHRDHQVAALSE [E6L] it was -0.14 ± 0.063; in that of GLMCLKHEDEKVNMYCVTDDQLICALCKLVGRHRDHQVAALSE [E6K], -0.206 ± 0.066; in that of GLMCLCHEDEKVNMYCVTDDQLICALCKLVGRHRDHQVAALSE [E6C], -0.447 ± 0.17.

On to GLMCLDHEDEKVNMYCVTDDQLICALCKLVGRHRDHQVAALSE [E6D], for which the abundance fitness is -0.132 ± 0.19. In the case of GLMCLWHEDEKVNMYCVTDDQLICALCKLVGRHRDHQVAALSE [E6W] it was -0.374 ± 0.083. Consider GLMCLHHEDEKVNMYCVTDDQLICALCKLVGRHRDHQVAALSE [E6H], for which the abundance fitness amounted to 0.063 ± 0.21. Under GLMCLQHEDEKVNMYCVTDDQLICALCKLVGRHRDHQVAALSE [E6Q] stands -0.036 ± 0.09; under GLMCLIHEDEKVNMYCVTDDQLICALCKLVGRHRDHQVAALSE [E6I], 0.126 ± 0.095.

Turning to GLMCLNHEDEKVNMYCVTDDQLICALCKLVGRHRDHQVAALSE [E6N], the abundance fitness is -0.226 ± 0.18. Under GLMCLYHEDEKVNMYCVTDDQLICALCKLVGRHRDHQVAALSE [E6Y] stands -0.276 ± 0.085; under GLMCLGHEDEKVNMYCVTDDQLICALCKLVGRHRDHQVAALSE [E6G], -0.438 ± 0.055; under GLMCLSHEDEKVNMYCVTDDQLICALCKLVGRHRDHQVAALSE [E6S], 0.039 ± 0.064. Take GLMCLRHEDEKVNMYCVTDDQLICALCKLVGRHRDHQVAALSE [E6R]: the abundance fitness is -0.297 ± 0.054. In the case of GEMCLEHEDEKVNMYCVTDDQLICALCKLVGRHRDHQVAALSE [L2E], the abundance fitness turned out to be 0.611 ± 0.056.

GYMCLEHEDEKVNMYCVTDDQLICALCKLVGRHRDHQVAALSE [L2Y]: the abundance fitness stood at 0.109 ± 0.17.

On to GAMCLEHEDEKVNMYCVTDDQLICALCKLVGRHRDHQVAALSE [L2A], for which the abundance fitness is 0.483 ± 0.058.

As to GSMCLEHEDEKVNMYCVTDDQLICALCKLVGRHRDHQVAALSE [L2S], the abundance fitness was found to be 0.279 ± 0.066. Consider GVMCLEHEDEKVNMYCVTDDQLICALCKLVGRHRDHQVAALSE [L2V], for which the abundance fitness worked out at 0.233 ± 0.061.

As to GQMCLEHEDEKVNMYCVTDDQLICALCKLVGRHRDHQVAALSE [L2Q], the abundance fitness was found to be 0.063 ± 0.11. Take GHMCLEHEDEKVNMYCVTDDQLICALCKLVGRHRDHQVAALSE [L2H]: the abundance fitness stood at 0.147 ± 0.085. As for GCMCLEHEDEKVNMYCVTDDQLICALCKLVGRHRDHQVAALSE [L2C], the abundance fitness was 0.19 ± 0.092.

Turning to GTMCLEHEDEKVNMYCVTDDQLICALCKLVGRHRDHQVAALSE [L2T], the abundance fitness amounted to 0.51 ± 0.069.

With GIMCLEHEDEKVNMYCVTDDQLICALCKLVGRHRDHQVAALSE [L2I], the abundance fitness was determined as 0.257 ± 0.12. Turning to GKMCLEHEDEKVNMYCVTDDQLICALCKLVGRHRDHQVAALSE [L2K], the abundance fitness is 0.795 ± 0.1. For the variant GMMCLEHEDEKVNMYCVTDDQLICALCKLVGRHRDHQVAALSE [L2M], the abundance fitness was 0.544 ± 0.066. For the variant GFMCLEHEDEKVNMYCVTDDQLICALCKLVGRHRDHQVAALSE [L2F], the abundance fitness is -0.298 ± 0.33. Consider GDMCLEHEDEKVNMYCVTDDQLICALCKLVGRHRDHQVAALSE [L2D], for which the abundance fitness is 0.674 ± 0.13. With GLMQLEHEDEKVNMYCVTDDQLICALCKLVGRHRDHQVAALSE [C4Q], the abundance fitness was -0.314 ± 0.079. As to GLMHLEHEDEKVNMYCVTDDQLICALCKLVGRHRDHQVAALSE [C4H], the abundance fitness is -0.221 ± 0.24. As for GLMGLEHEDEKVNMYCVTDDQLICALCKLVGRHRDHQVAALSE [C4G], the abundance fitness was -0.713 ± 0.083. Take GLMRLEHEDEKVNMYCVTDDQLICALCKLVGRHRDHQVAALSE [C4R]: the abundance fitness was -0.647 ± 0.086. On to GLMWLEHEDEKVNMYCVTDDQLICALCKLVGRHRDHQVAALSE [C4W], for which the abundance fitness is -0.439 ± 0.12. With GLMELEHEDEKVNMYCVTDDQLICALCKLVGRHRDHQVAALSE [C4E], the abundance fitness is -0.441 ± 0.096.

For the variant GLMYLEHEDEKVNMYCVTDDQLICALCKLVGRHRDHQVAALSE [C4Y], the abundance fitness was -0.594 ± 0.2. With GLMTLEHEDEKVNMYCVTDDQLICALCKLVGRHRDHQVAALSE [C4T], the abundance fitness is -0.078 ± 0.13. Under GLMPLEHEDEKVNMYCVTDDQLICALCKLVGRHRDHQVAALSE [C4P] stands -1.18 ± 0.29; under GLMSLEHEDEKVNMYCVTDDQLICALCKLVGRHRDHQVAALSE [C4S], -0.295 ± 0.085. For the variant GLMALEHEDEKVNMYCVTDDQLICALCKLVGRHRDHQVAALSE [C4A], the abundance fitness was -0.699 ± 0.11. Regarding GLMVLEHEDEKVNMYCVTDDQLICALCKLVGRHRDHQVAALSE [C4V], the abundance fitness is -0.944 ± 0.14.

For GLMDLEHEDEKVNMYCVTDDQLICALCKLVGRHRDHQVAALSE [C4D], the abundance fitness was -0.343 ± 0.083. With PLMCLEHEDEKVNMYCVTDDQLICALCKLVGRHRDHQVAALSE [G1P], the abundance fitness was -0.112 ± 0.23. In the case of RLMCLEHEDEKVNMYCVTDDQLICALCKLVGRHRDHQVAALSE [G1R], the abundance fitness is -0.081 ± 0.078. For ELMCLEHEDEKVNMYCVTDDQLICALCKLVGRHRDHQVAALSE [G1E], the abundance fitness came out at 0.134 ± 0.087.

For the variant VLMCLEHEDEKVNMYCVTDDQLICALCKLVGRHRDHQVAALSE [G1V], the abundance fitness was -0.211 ± 0.072. YLMCLEHEDEKVNMYCVTDDQLICALCKLVGRHRDHQVAALSE [G1Y]: the abundance fitness is -0.192 ± 0.15. Under TLMCLEHEDEKVNMYCVTDDQLICALCKLVGRHRDHQVAALSE [G1T] stands -0.235 ± 0.27; under DLMCLEHEDEKVNMYCVTDDQLICALCKLVGRHRDHQVAALSE [G1D], 0.306 ± 0.091. On to KLMCLEHEDEKVNMYCVTDDQLICALCKLVGRHRDHQVAALSE [G1K], for which the abundance fitness amounted to 0.061 ± 0.29. In the case of ALMCLEHEDEKVNMYCVTDDQLICALCKLVGRHRDHQVAALSE [G1A], the abundance fitness was -0.361 ± 0.087. As to SLMCLEHEDEKVNMYCVTDDQLICALCKLVGRHRDHQVAALSE [G1S], the abundance fitness is -0.184 ± 0.11.

With WLMCLEHEDEKVNMYCVTDDQLICALCKLVGRHRDHQVAALSE [G1W], the abundance fitness was -0.611 ± 0.2. Turning to GLQCLEHEDEKVNMYCVTDDQLICALCKLVGRHRDHQVAALSE [M3Q], the abundance fitness is -0.276 ± 0.14. Under GLFCLEHEDEKVNMYCVTDDQLICALCKLVGRHRDHQVAALSE [M3F] stands 0.111 ± 0.13; under GLACLEHEDEKVNMYCVTDDQLICALCKLVGRHRDHQVAALSE [M3A], -0.022 ± 0.12.

The record behind these values is the Human Domainome abundance scans (Beltran et al. 2025).
